Measured values: patent US20220306759A1

How the values were obtained:
[1] = molecular target: human CD71 (transferrin receptor protein 1, TfR1) on human cell lines (human) (UniProt P02786); experiment: FACS on H292 cells; isotype ADC control
[2] = molecular target: human CD71 (transferrin receptor protein 1, TfR1) on human cell lines (human) (UniProt P02786); experiment: FACS on H292 cells; isotype ADC control, curve fit with Bmax of only 10.64 MFI

human CD71 (transferrin receptor protein 1, TfR1) on human cell lines (human), sequence (P02786 whole entry): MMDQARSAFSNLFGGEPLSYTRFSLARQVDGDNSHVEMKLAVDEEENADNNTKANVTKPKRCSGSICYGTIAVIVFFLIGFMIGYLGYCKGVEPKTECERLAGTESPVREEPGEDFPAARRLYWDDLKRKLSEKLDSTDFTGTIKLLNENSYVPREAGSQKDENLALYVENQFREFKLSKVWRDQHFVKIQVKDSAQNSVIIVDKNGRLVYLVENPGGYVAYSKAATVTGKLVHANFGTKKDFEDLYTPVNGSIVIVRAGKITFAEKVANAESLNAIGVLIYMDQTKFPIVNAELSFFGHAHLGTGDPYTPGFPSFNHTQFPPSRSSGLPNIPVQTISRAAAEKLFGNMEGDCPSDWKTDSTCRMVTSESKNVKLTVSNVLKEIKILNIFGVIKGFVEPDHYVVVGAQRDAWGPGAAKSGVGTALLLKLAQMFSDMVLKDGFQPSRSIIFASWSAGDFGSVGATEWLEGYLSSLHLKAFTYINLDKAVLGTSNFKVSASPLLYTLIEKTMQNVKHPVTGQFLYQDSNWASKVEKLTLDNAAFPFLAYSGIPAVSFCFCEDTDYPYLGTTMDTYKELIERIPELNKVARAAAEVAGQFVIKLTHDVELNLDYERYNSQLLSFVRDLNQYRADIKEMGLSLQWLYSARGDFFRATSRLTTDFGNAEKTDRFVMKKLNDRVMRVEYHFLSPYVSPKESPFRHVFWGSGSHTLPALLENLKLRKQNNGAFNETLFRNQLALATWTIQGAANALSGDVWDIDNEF

isotype ADC control (palivizumab-vc-MMAE) (antibody)
Bmax (MFI) [1]: 10.6 MFI | Kd [2]: 57 nM
